Measured values as given in the supplement of paper PMC10724198.
± gives the standard deviation of the averaged measurements.
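Further: PSI is a weighted mean of sequencing reads over stability bins, variants kept only with over 10 reads, mCherry proximal and sfGFP distal, peptide attached via GGGS linker.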

The sequences below were run on Saccharomyces cerevisiae (assay: protein stability index of tFT-peptide fusion (C-terminal peptide) (PSI (0-1 scale)); higher = more stable (slower turnover)). Conditions: genetic background: das1 deletion; temperature: 37 C.
Method: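 MPS profiling in S. cerevisiae of the tFT-X12 degron library: putative degron peptides plus stable controls, 12 aa, fused to the C-terminus of a sfGFP-mCherry timer. Cells are FACS-sorted into 8 mCherry/sfGFP bins and deep-sequenced. PSI runs from 0 (unstable) to 1 (stable). Backgrounds are wild type, das1Δ and doa10Δ at 30 °C, and wild type, das1Δ, cdc34-1 and cdc53-1 at 37 °C; 2-3 technical replicates each.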
LVCSRFLFAFHC showed a protein stability index of 0.699 ± 0.014. For LVFFLFFFRCFS, the protein stability index was 0.534 ± 0.014. In the case of LVFGFSLILRVG, the protein stability index is reported as 0.356 ± 0.016. LVRDEVLKVKLV gave a protein stability index of 0.722 ± 0.013. Work on LVRGSRLIVIVG yielded a protein stability index of 0.5181 ± 0.0045. Sequence LYTFCSMDANPM has a protein stability index of 0.383 ± 0.033. With MALAVRVVYCGA the protein stability index was 0.4395 ± 0.0024. MFTIYISFVFAF was tested, and the protein stability index was 0.3305 ± 0.00089. For MSQVRYQRATRA, the protein stability index was 0.692 ± 0.0087. For NDKGKKTKIKIV, the protein stability index was 0.7368 ± 0.0053. NENQIKVIMLLV showed a protein stability index of 0.555 ± 0.0077. In the case of NRFRLFRLNFSV, the protein stability index is reported as 0.751 ± 0.014. For PATPPLRFPPSA, the protein stability index was 0.7356 ± 0.0028. PCTFYLFWMFFV was tested, and the protein stability index was 0.6011 ± 0.0014. PFGPTFSPRPFR showed a protein stability index of 0.7793 ± 0.0072. Work on PFLSLPFLFPSS yielded a protein stability index of 0.7675 ± 0.0052. With PFSLCFVFPFFF the protein stability index was 0.6329 ± 0.0063. Sequence PGWALLQLVFLK has a protein stability index of 0.4845 ± 0.0029. In the case of PHHSPPTGPPND, the protein stability index is reported as 0.7171 ± 0.0041. PLHPSSTPATPF gave a protein stability index of 0.745 ± 0.023. Sequence PLLPPLSTPPPA has a protein stability index of 0.739 ± 0.011. Sequence PLPSRAPVQFLL has a protein stability index of 0.727 ± 0.0097. For PLRLRCASLFAN, the protein stability index was 0.737 ± 0.04. PLVLPPINLFLV gave a protein stability index of 0.7373 ± 0.0008. For PPLPPPPPHPPP, the protein stability index was 0.521 ± 0.023. PPPLLVRPWFLV was tested, and the protein stability index was 0.741 ± 0.024. PPPPHSAPLFLS gave a protein stability index of 0.694 ± 0.011. For PPPPLFLIVLHL, the protein stability index was 0.642 ± 0.012. In the case of PPPPPLAIPHPT, the protein stability index is reported as 0.684 ± 0.024. With PPPPPPLPSPSS the protein stability index was 0.754 ± 0.012. Sequence PPPPPSRPFSPP has a protein stability index of 0.71 ± 0.024. PPPRSLSPPLLS showed a protein stability index of 0.704 ± 0.0013. Sequence PPRSRPLLRPLP has a protein stability index of 0.7139 ± 0.0036.

Same assay, conditions: genetic background: doa10 deletion; temperature: 30 C
With LVCSRFLFAFHC the protein stability index was 0.076 ± 0.0097. With LVFFLFFFRCFS the protein stability index was 0.3734 ± 0.0018. Sequence LVFGFSLILRVG has a protein stability index of 0.139 ± 0.016. LVRDEVLKVKLV gave a protein stability index of 0.138 ± 0.0093. LVRGSRLIVIVG was tested, and the protein stability index was 0.289 ± 0.0053. Sequence LYTFCSMDANPM has a protein stability index of 0.488 ± 0.028. MALAVRVVYCGA was tested, and the protein stability index was 0.234 ± 0.011. MFTIYISFVFAF was tested, and the protein stability index was 0.179 ± 0.017. In the case of MSQVRYQRATRA, the protein stability index is reported as 0.526 ± 0.021. Sequence NDKGKKTKIKIV has a protein stability index of 0.187 ± 0.011. Sequence NENQIKVIMLLV has a protein stability index of 0.153 ± 0.0095. In the case of NRFRLFRLNFSV, the protein stability index is reported as 0.161 ± 0.0037. PATPPLRFPPSA showed a protein stability index of 0.67 ± 0.033. With PCTFYLFWMFFV the protein stability index was 0.223 ± 0.011. In the case of PFGPTFSPRPFR, the protein stability index is reported as 0.692 ± 0.023. Sequence PFLSLPFLFPSS has a protein stability index of 0.687 ± 0.027. In the case of PFSLCFVFPFFF, the protein stability index is reported as 0.143 ± 0.0063. With PGWALLQLVFLK the protein stability index was 0.496 ± 0.035. PHHSPPTGPPND gave a protein stability index of 0.663 ± 0.014. Sequence PLHPSSTPATPF has a protein stability index of 0.677 ± 0.026. Work on PLLPPLSTPPPA yielded a protein stability index of 0.669 ± 0.022. For PLPSRAPVQFLL, the protein stability index was 0.1719 ± 0.0011. In the case of PLRLRCASLFAN, the protein stability index is reported as 0.304 ± 0.018. With PLVLPPINLFLV the protein stability index was 0.0842 ± 0.029. Work on PPLPPPPPHPPP yielded a protein stability index of 0.501 ± 0.017. In the case of PPPLLVRPWFLV, the protein stability index is reported as 0.147 ± 0.018. PPPPHSAPLFLS was tested, and the protein stability index was 0.227 ± 0.0096. With PPPPLFLIVLHL the protein stability index was 0.4109 ± 0.0026. PPPPPLAIPHPT gave a protein stability index of 0.639 ± 0.011. PPPPPPLPSPSS gave a protein stability index of 0.659 ± 0.015. Sequence PPPPPSRPFSPP has a protein stability index of 0.689 ± 0.0074. PPPRSLSPPLLS was tested, and the protein stability index was 0.6711 ± 0.0062. PPRSRPLLRPLP gave a protein stability index of 0.684 ± 0.033.

Same assay, conditions: genetic background: wild type; temperature: 30 C
In the case of LVCSRFLFAFHC, the protein stability index is reported as 0.0796 ± 0.0047. LVFFLFFFRCFS showed a protein stability index of 0.36 ± 0.033. With LVFGFSLILRVG the protein stability index was 0.128 ± 0.0069. Sequence LVRDEVLKVKLV has a protein stability index of 0.17 ± 0.021. LVRGSRLIVIVG gave a protein stability index of 0.328 ± 0.034. With LYTFCSMDANPM the protein stability index was 0.468 ± 0.0092. Sequence MALAVRVVYCGA has a protein stability index of 0.283 ± 0.027. MFTIYISFVFAF was tested, and the protein stability index was 0.214 ± 0.0098. For MSQVRYQRATRA, the protein stability index was 0.535 ± 0.023. NDKGKKTKIKIV gave a protein stability index of 0.185 ± 0.024. With NENQIKVIMLLV the protein stability index was 0.196 ± 0.04. Sequence NRFRLFRLNFSV has a protein stability index of 0.168 ± 0.024. For PATPPLRFPPSA, the protein stability index was 0.668 ± 0.012. PCTFYLFWMFFV gave a protein stability index of 0.228 ± 0.021. PFGPTFSPRPFR was tested, and the protein stability index was 0.701 ± 0.013. Sequence PFLSLPFLFPSS has a protein stability index of 0.696 ± 0.027. Work on PFSLCFVFPFFF yielded a protein stability index of 0.174 ± 0.0044. In the case of PGWALLQLVFLK, the protein stability index is reported as 0.353 ± 0.021. Sequence PHHSPPTGPPND has a protein stability index of 0.658 ± 0.007. PLHPSSTPATPF gave a protein stability index of 0.6834 ± 0.0044. PLLPPLSTPPPA gave a protein stability index of 0.677 ± 0.013. PLPSRAPVQFLL showed a protein stability index of 0.199 ± 0.019. Sequence PLRLRCASLFAN has a protein stability index of 0.362 ± 0.019. PLVLPPINLFLV was tested, and the protein stability index was 0.114 ± 0.019. PPLPPPPPHPPP was tested, and the protein stability index was 0.493 ± 0.04. PPPLLVRPWFLV showed a protein stability index of 0.157 ± 0.019. Sequence PPPPHSAPLFLS has a protein stability index of 0.261 ± 0.032. PPPPLFLIVLHL showed a protein stability index of 0.401 ± 0.026. Work on PPPPPLAIPHPT yielded a protein stability index of 0.674 ± 0.031. For PPPPPPLPSPSS, the protein stability index was 0.68 ± 0.023. PPPPPSRPFSPP was tested, and the protein stability index was 0.6544 ± 0.0037. In the case of PPPRSLSPPLLS, the protein stability index is reported as 0.659 ± 0.014. PPRSRPLLRPLP was tested, and the protein stability index was 0.684 ± 0.022.

Same assay, conditions: genetic background: wild type; temperature: 37 C
In the case of LVCSRFLFAFHC, the protein stability index is reported as 0.104 ± 0.012. For LVFFLFFFRCFS, the protein stability index was 0.488 ± 0.0042. Sequence LVFGFSLILRVG has a protein stability index of 0.234 ± 0.018. LVRDEVLKVKLV showed a protein stability index of 0.244 ± 0.0095. Sequence LVRGSRLIVIVG has a protein stability index of 0.492 ± 0.019. LYTFCSMDANPM showed a protein stability index of 0.407 ± 0.04. MALAVRVVYCGA gave a protein stability index of 0.415 ± 0.021. Sequence MFTIYISFVFAF has a protein stability index of 0.2844 ± 0.0023. MSQVRYQRATRA showed a protein stability index of 0.648 ± 0.011. NDKGKKTKIKIV was tested, and the protein stability index was 0.343 ± 0.029. NENQIKVIMLLV gave a protein stability index of 0.268 ± 0.011. Work on NRFRLFRLNFSV yielded a protein stability index of 0.36 ± 0.049. In the case of PATPPLRFPPSA, the protein stability index is reported as 0.7075 ± 0.0036. With PCTFYLFWMFFV the protein stability index was 0.328 ± 0.0081. Sequence PFGPTFSPRPFR has a protein stability index of 0.747 ± 0.0083. With PFLSLPFLFPSS the protein stability index was 0.757 ± 0.016. PFSLCFVFPFFF showed a protein stability index of 0.28 ± 0.0092. Sequence PGWALLQLVFLK has a protein stability index of 0.464 ± 0.011. Work on PHHSPPTGPPND yielded a protein stability index of 0.705 ± 0.0085. Work on PLHPSSTPATPF yielded a protein stability index of 0.722 ± 0.02. With PLLPPLSTPPPA the protein stability index was 0.6983 ± 0.0039. PLPSRAPVQFLL was tested, and the protein stability index was 0.3725 ± 0.00074. PLRLRCASLFAN gave a protein stability index of 0.5647 ± 0.002. In the case of PLVLPPINLFLV, the protein stability index is reported as 0.136 ± 0.021. Sequence PPLPPPPPHPPP has a protein stability index of 0.4959 ± 0.0011. PPPLLVRPWFLV gave a protein stability index of 0.269 ± 0.02. Sequence PPPPHSAPLFLS has a protein stability index of 0.458 ± 0.011. PPPPLFLIVLHL showed a protein stability index of 0.593 ± 0.023. Work on PPPPPLAIPHPT yielded a protein stability index of 0.7141 ± 0.0041. In the case of PPPPPPLPSPSS, the protein stability index is reported as 0.699 ± 0.019. PPPPPSRPFSPP gave a protein stability index of 0.709 ± 0.013. PPPRSLSPPLLS was tested, and the protein stability index was 0.681 ± 0.023. Work on PPRSRPLLRPLP yielded a protein stability index of 0.708 ± 0.025.
